*1 amine or outer side, *2 acyl side, *3 side chain or, on linkers, in order; H or OH if unused. [ ]: non-standard residue; d: D form. Ser(Me) = O-methylserine, COC[C@H](N[*:1])C(=O)[*:2]; Arg(Me) = CNC(=N)NCCC[C@H](N)C(=O)O; Dap(CONH2) = NC(=O)NC[C@H](N)C(=O)O; Ala(cPr) = N[C@@H](CC1CC1)C(=O)O; Hyp = O=C(O)[C@@H]1C[C@@H](O)CN1; tBuAla = CC(C)(C)C[C@H](N)C(=O)O; Cha = N[C@@H](CC1CCCCC1)C(=O)O; Cba = N[C@@H](CC1CCC1)C(=O)O; Nle = CCCC[C@H](N)C(=O)O; Dap = NC[C@H](N)C(=O)O
Target: metastin receptor (OT7T175) stably expressed on CHO/dhfr- cells (human or rat, not given)
Assay: cell-based or functional assay

B1: des(1)-Ac-[D-Tyr2,Hyp3,Thr5,Cha6,Gly7Ψ(CH2S)Leu8,Arg(Me)9,Trp10]MS10 (peptide)
peptide: Ac-[dY][Hyp]NT[Cha]GL[Arg(Me)]W-NH2
modifications: also: Gly6-Leu7 -CONH- replaced by -CH2S-
B1 was tested, and the Specific Activity (EC50 of test compound based on EC50 of Metastin (45-54)); agonist activity, intracellular calcium ion level, FLIPR (ratio to Metastin (45-54)) was 1.7.

B2: des(1)-Ac-[D-Tyr2,Hyp3,Thr5,Cha6,Nle8,Arg(Me)9,Trp10]MS10 (peptide)
peptide: Ac-[dY][Hyp]NT[Cha]G[Nle][Arg(Me)]W-NH2
SMILES: CCCC[C@H](NC(=O)CNC(=O)[C@H](CC1CCCCC1)NC(=O)[C@@H](NC(=O)[C@H](CC(N)=O)NC(=O)[C@@H]1C[C@@H](O)CN1C(=O)[C@@H](Cc1ccc(O)cc1)NC(C)=O)[C@@H](C)O)C(=O)N[C@@H](CCCNC(=N)NC)C(=O)N[C@@H](Cc1c[nH]c2ccccc12)C(N)=O
B2 showed a Specific Activity (EC50 of test compound based on EC50 of Metastin (45-54)); agonist activity, intracellular calcium ion level, FLIPR (ratio to Metastin (45-54)) of 0.6.

B3: des(1)-Ac-[D-Tyr2,Hyp3,Thr5,Cha6,Leu(Me)8,Arg(Me)9,Trp10]MS10 (peptide)
peptide: Ac-[dY][Hyp]NT[Cha]G[tBuAla][Arg(Me)]W-NH2
SMILES: CNC(=N)NCCC[C@H](NC(=O)[C@H](CC(C)(C)C)NC(=O)CNC(=O)[C@H](CC1CCCCC1)NC(=O)[C@@H](NC(=O)[C@H](CC(N)=O)NC(=O)[C@@H]1C[C@@H](O)CN1C(=O)[C@@H](Cc1ccc(O)cc1)NC(C)=O)[C@@H](C)O)C(=O)N[C@@H](Cc1c[nH]c2ccccc12)C(N)=O
Work on B3 yielded a Specific Activity (EC50 of test compound based on EC50 of Metastin (45-54)); agonist activity, intracellular calcium ion level, FLIPR (ratio to Metastin (45-54)) of 1.4.

B4: des(1)-Ac-[D-Tyr2,Hyp3,Thr5,Cha6,8,Arg(Me)9,Trp10]MS10 (peptide)
peptide: Ac-[dY][Hyp]NT[Cha]G[Cha][Arg(Me)]W-NH2
SMILES: CNC(=N)NCCC[C@H](NC(=O)[C@H](CC1CCCCC1)NC(=O)CNC(=O)[C@H](CC1CCCCC1)NC(=O)[C@@H](NC(=O)[C@H](CC(N)=O)NC(=O)[C@@H]1C[C@@H](O)CN1C(=O)[C@@H](Cc1ccc(O)cc1)NC(C)=O)[C@@H](C)O)C(=O)N[C@@H](Cc1c[nH]c2ccccc12)C(N)=O
B4 was tested, and the Specific Activity (EC50 of test compound based on EC50 of Metastin (45-54)); agonist activity, intracellular calcium ion level, FLIPR (ratio to Metastin (45-54)) was 3.5.

B5: des(1)-Ac-[D-Tyr2,Hyp3,Thr5,Cha6,Ala(cPr)8,Trp10]MS10 (peptide)
peptide: Ac-[dY][Hyp]NT[Cha]G[Ala(cPr)]RW-NH2
SMILES: CC(=O)N[C@H](Cc1ccc(O)cc1)C(=O)N1C[C@H](O)C[C@H]1C(=O)N[C@@H](CC(N)=O)C(=O)N[C@H](C(=O)N[C@@H](CC1CCCCC1)C(=O)NCC(=O)N[C@@H](CC1CC1)C(=O)N[C@@H](CCCNC(=N)N)C(=O)N[C@@H](Cc1c[nH]c2ccccc12)C(N)=O)[C@@H](C)O
In the case of B5, the Specific Activity (EC50 of test compound based on EC50 of Metastin (45-54)); agonist activity, intracellular calcium ion level, FLIPR (ratio to Metastin (45-54)) is reported as 0.5.

B6: des(1)-Ac-[D-Tyr2,Glu3,Thr5,Cha6,Ala(cPr)8,Trp10]MS10 (peptide)
peptide: Ac-[dY]ENT[Cha]G[Ala(cPr)]RW-NH2
SMILES: CC(=O)N[C@H](Cc1ccc(O)cc1)C(=O)N[C@@H](CCC(=O)O)C(=O)N[C@@H](CC(N)=O)C(=O)N[C@H](C(=O)N[C@@H](CC1CCCCC1)C(=O)NCC(=O)N[C@@H](CC1CC1)C(=O)N[C@@H](CCCNC(=N)N)C(=O)N[C@@H](Cc1c[nH]c2ccccc12)C(N)=O)[C@@H](C)O
In the case of B6, the Specific Activity (EC50 of test compound based on EC50 of Metastin (45-54)); agonist activity, intracellular calcium ion level, FLIPR (ratio to Metastin (45-54)) is reported as 0.4.

B7: des(1)-Ac-[D-Tyr2,Hyp3,Thr5,Phe6Ψ(CH2S)Gly7,Arg(Me)9,Trp10]MS10 (peptide)
peptide: Ac-[dY][Hyp]NTFGL[Arg(Me)]W-NH2
modifications: also: Phe5-Gly6 amide bond replaced by -CH2S-
Binder B7 has a Specific Activity (EC50 of test compound based on EC50 of Metastin (45-54)); agonist activity, intracellular calcium ion level, FLIPR (ratio to Metastin (45-54)) of 0.7.

B8: des(1)-Ac-[D-Tyr2,Hyp3,Thr5,Ala(cBu)6,Ala(cPr)8,Arg(Me)9,Trp10]MS10 (peptide)
peptide: Ac-[dY][Hyp]NT[Cba]G[Ala(cPr)][Arg(Me)]W-NH2
Work on B8 yielded a Specific Activity (EC50 of test compound based on EC50 of Metastin (45-54)); agonist activity, intracellular calcium ion level, FLIPR (ratio to Metastin (45-54)) of 0.7.

B9: des(1)-Ac-[D-Tyr2,Hyp3,Thr5,Cha6,Ala(cBu)8,Arg(Me)9,Trp10]MS10 (peptide)
peptide: Ac-[dY][Hyp]NT[Cha]G[Cba][Arg(Me)]W-NH2
SMILES: CNC(=N)NCCC[C@H](NC(=O)[C@H](CC1CCC1)NC(=O)CNC(=O)[C@H](CC1CCCCC1)NC(=O)[C@@H](NC(=O)[C@H](CC(N)=O)NC(=O)[C@@H]1C[C@@H](O)CN1C(=O)[C@@H](Cc1ccc(O)cc1)NC(C)=O)[C@@H](C)O)C(=O)N[C@@H](Cc1c[nH]c2ccccc12)C(N)=O
B9 gave a Specific Activity (EC50 of test compound based on EC50 of Metastin (45-54)); agonist activity, intracellular calcium ion level, FLIPR (ratio to Metastin (45-54)) of 0.5.

B10: des(1)-Ac-[D-Tyr2,Hyp3,Alb4,Ala5,Cha6,Ala(cPr)8,Arg(Me)9,Trp10]MS10 (peptide)
peptide: Ac-[dY][Hyp][Dap(CONH2)]A[Cha]G[Ala(cPr)][Arg(Me)]W-NH2
For B10, the Specific Activity (EC50 of test compound based on EC50 of Metastin (45-54)); agonist activity, intracellular calcium ion level, FLIPR (ratio to Metastin (45-54)) was 0.5.

B11: des(1)-Ac-[D-Tyr2,Hyp3,Alb4,Ser5,Cha6,Ala(cPr)8,Arg(Me)9,Trp10]MS10 (peptide)
peptide: Ac-[dY][Hyp][Dap(CONH2)]S[Cha]G[Ala(cPr)][Arg(Me)]W-NH2
Binder B11 has a Specific Activity (EC50 of test compound based on EC50 of Metastin (45-54)); agonist activity, intracellular calcium ion level, FLIPR (ratio to Metastin (45-54)) of 0.5.

B12: des(1)-Ac-[D-Tyr2,Hyp3,Alb4,Gly5,Cha6,Ala(cPr)8,Arg(Me)9,Trp10]MS10 (peptide)
peptide: Ac-[dY][Hyp][Dap(CONH2)]G[Cha]G[Ala(cPr)][Arg(Me)]W-NH2
For B12, the Specific Activity (EC50 of test compound based on EC50 of Metastin (45-54)); agonist activity, intracellular calcium ion level, FLIPR (ratio to Metastin (45-54)) was 0.7.

B13: des(1)-Ac-[D-Tyr2,Hyp3,Alb4,Dap5,Cha6,Ala(cPr)8,Arg(Me)9,Trp10]MS10 (peptide)
peptide: Ac-[dY][Hyp][Dap(CONH2)][Dap][Cha]G[Ala(cPr)][Arg(Me)]W-NH2
In the case of B13, the Specific Activity (EC50 of test compound based on EC50 of Metastin (45-54)); agonist activity, intracellular calcium ion level, FLIPR (ratio to Metastin (45-54)) is reported as 0.7.

B14: des(1)-Ac-[D-Tyr2,Hyp3,Alb4,Thr5,Cha6,Gly7Ψ(CH2CH2)Leu8,Trp10]MS10 (peptide)
peptide: Ac-[dY][Hyp][Dap(CONH2)]T[Cha]GLRW-NH2
modifications: also: Gly6-Leu7 -CONH- replaced by -CH2CH2-
For B14, the Specific Activity (EC50 of test compound based on EC50 of Metastin (45-54)); agonist activity, intracellular calcium ion level, FLIPR (ratio to Metastin (45-54)) was 1.3.

B15: des(1)-Ac-[D-Tyr2,Hyp3,Alb4,Thr5,Cha6,Ala(cPr)8,Arg(Me)9,Trp10]MS10 (peptide)
peptide: Ac-[dY][Hyp][Dap(CONH2)]T[Cha]G[Ala(cPr)][Arg(Me)]W-NH2
With B15 the Specific Activity (EC50 of test compound based on EC50 of Metastin (45-54)); agonist activity, intracellular calcium ion level, FLIPR (ratio to Metastin (45-54)) was 0.5.

B16: des(1)-Ac-[D-Tyr2,Hyp3,Thr5,Cha6,Gly7Ψ(CH2CH2)Leu8,Trp10]MS10 (peptide)
peptide: Ac-[dY][Hyp]NT[Cha]GLRW-NH2
modifications: also: Gly6-Leu7 -CONH- replaced by -CH2CH2-
Binder B16 has a Specific Activity (EC50 of test compound based on EC50 of Metastin (45-54)); agonist activity, intracellular calcium ion level, FLIPR (ratio to Metastin (45-54)) of 1.1.

B17: des(1)-Ac-[D-Tyr2,Hyp3,Alb4,Thr5,Cha6,Gly7Ψ(CH2CH2)Leu8,Arg(Me)9,Trp10]MS10 (peptide)
peptide: Ac-[dY][Hyp][Dap(CONH2)]T[Cha]GL[Arg(Me)]W-NH2
modifications: also: Gly6-Leu7 -CONH- replaced by -CH2CH2-
B17 showed a Specific Activity (EC50 of test compound based on EC50 of Metastin (45-54)); agonist activity, intracellular calcium ion level, FLIPR (ratio to Metastin (45-54)) of 1.1.

B18: des(1)-Ac-[D-Tyr2,Hyp3,Thr5,Ser(Me)7,Arg(Me)9,Trp10]MS10 (peptide)
peptide: Ac-[dY][Hyp]NTF[Ser(Me)]L[Arg(Me)]W-NH2
B18 was tested, and the Specific Activity (EC50 of test compound based on EC50 of Metastin (45-54)); agonist activity, intracellular calcium ion level, FLIPR (ratio to Metastin (45-54)) was 1.2.

Reference: US7786083B2, “Metastin derivatives and use thereof” (Takeda Pharmaceutical Company Limited, priority 2006, dated 2010)
